1 molecule from article PMC4749091 (The Journal of Experimental Medicine, 2016) can be followed below.

The target of this assay is T1, human CD112-Fc fusion protein (human, UniProt Q92692 32-360).
T1 sequence (looked up): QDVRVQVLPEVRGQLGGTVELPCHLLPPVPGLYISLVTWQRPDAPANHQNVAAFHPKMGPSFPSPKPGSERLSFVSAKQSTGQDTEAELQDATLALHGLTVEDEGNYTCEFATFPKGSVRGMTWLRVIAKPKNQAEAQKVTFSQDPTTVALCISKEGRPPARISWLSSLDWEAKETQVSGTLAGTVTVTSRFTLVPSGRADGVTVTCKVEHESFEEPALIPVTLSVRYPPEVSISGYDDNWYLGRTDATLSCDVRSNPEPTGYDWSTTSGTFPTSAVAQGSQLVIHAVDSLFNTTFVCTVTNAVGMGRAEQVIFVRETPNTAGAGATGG
Briefly: competition by flow cytometry on protein-coated beads.

B1: human CD226-Fc fusion protein (Fc fusion, UniProt Q15762 19-254, looked up)
chain: EEVLWHTSVPFAENMSLECVYPSMGILTQVEWFKIGTQQDSIAIFSPTHGMVIRKPYAERVYFLNSTMASNNMTLFFRNASEDDVGYYSCSLYTYPQGTWQKVIQVVQSDSFEAAVPSNSHIVSEPGKNVTLTCQPQMTWPVQAVRWEKIQPRQIDLLTYCNLVHGRNFTSKFPRQIVSNCSHGRWSVIVIPDVTVSDSGLYRCYLQASAGENETFVMRLTVAEGKTDNQYTLFVA
As for B1, the binding result is listed as “binds”.
